Experiment [1] relates to PMNs. Kind of experiment: [Ca2+]i mobilization in PMNs (FLIPR). It is filed as cell-based, human. To be noted: n as in cell. An excerpt: Neutrophils play a pivotal role in the innate immune response to infection. Since these cells express FPRL-1, we evaluated the effect of CKβ8-1 (aa46-137) on PMNs calcium mobilization using the FLIPR system.
In experiment [2] the target is human formyl peptide receptor-like-1 (FPRL-1) receptor (human) (UniProt P25090). Kind of experiment: cell-based or functional assay.
Experiment [3] deals with PMNs. The experiment is described as follows: PMNs chemotaxis. It is filed as cell-based, human. The protocol:
The physiological relevance of CKβ8-1 (aa46-137) as a ligand for FPRL-1 was assessed by PMNs chemotaxis experiments.

Experiment [4] deals with T1, FPRL-1 (Homo sapiens, UniProt P25090).
T1 sequence (P25090 1-351): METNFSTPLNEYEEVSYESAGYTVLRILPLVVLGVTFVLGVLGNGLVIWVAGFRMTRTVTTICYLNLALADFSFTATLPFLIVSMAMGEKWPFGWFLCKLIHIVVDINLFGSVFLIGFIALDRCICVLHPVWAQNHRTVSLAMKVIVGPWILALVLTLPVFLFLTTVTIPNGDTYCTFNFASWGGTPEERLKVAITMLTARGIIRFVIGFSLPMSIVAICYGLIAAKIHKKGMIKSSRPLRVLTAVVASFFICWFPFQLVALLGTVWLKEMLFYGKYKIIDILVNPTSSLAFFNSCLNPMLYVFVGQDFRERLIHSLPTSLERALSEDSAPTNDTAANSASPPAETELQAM
It is filed as cell-based.

Experiment [5] deals with T1, FPRL-1. It is filed as cell-based. The protocol:
A stable receptor pool of FPRL-1 was developed by applying an antibiotic selection (G418, 1 mg/ml) and the cells were maintained in this selection medium.
A functional assay was performed with FLIPR (Fluorescent Imaging Plate Reader, Molecular Devices, Sunnyvale, Calif.) using the fluorescent calcium indicator Fluo-3 (Molecular Probes, Inc., Eugene, Oreg.) on a 96-well platform. […] On the day of the experiment, the FPRL-1-transfected cells were loaded with fluorescent solution (Dulbecco's modified medium containing 4 μM Fluo-3 and 20% pluronic acid). The cells were incubated at 37° C. for one hour in a humidified chamber. Following the incubation step, cells were washed five times in Hanks' with 20 mM Hepes and 0.1% BSA (pH 7.4). The cells were analyzed using the FLIPR system to measure the mobilization of intracellular calcium in response to different compounds.
Cell lines transiently expressing human FPRL-1 were stimulated with compounds, and calcium responses were compared to parental cells.
This is another data set of the same source.

Experiment [6] deals with human formyl peptide receptor-like-1 (FPRL-1) receptor (human) (UniProt P25090). The experiment is described as follows: displacement of [125I]-WKYMVm from membranes of CHO cells stably expressing FPRL-1 (n = 3). In general terms: Loss of bound radioactivity is the signal in a displacement assay; it reports binding, not function.
Experiment [7] addresses T1, FPRL-1. The experiment is described as follows: [125I]-W-peptide (WKYMVm) displacement on membranes from CHO cells stably expressing FPRL-1. It is filed as binding.
In experiment [8] the target is T1, FPRL-1. Kind of experiment: Inhibition of forskolin-stimulated cAMP accumulation (adenylyl cyclase) in CHO cells expressing FPRL-1. It is filed as cell-based. To be noted: n as in cell.
Experiment [9] has as its target human formyl peptide receptor-like-1 (FPRL-1) receptor (human) (UniProt P25090). The experiment is described as follows: cell-based or functional assay. The source holds these as a separate data set.
Where [10] appears, read: calcium mobilization, cells co-expressing Gα16 and FPRL-1.
Setting [11] is: CHO cells co-expressing Gα16 and FPRL-1, mean±s.e. mean.

Values joined by “and” are separate entries in the source; they are usually repeats but may differ in a detail not shown here. Identical values can stand only once. Like-named read-outs stand apart in the source and are kept apart here. Where no end group is shown, it is not given here.

Regarding “IL-8: known to activate CXCR1 and CXCR2 receptors”, in the experiment with PMNs [1], the pEC50 is given as 8.76 ± 0.24 (n = 3).

For “CKβ8-1 (aa22-137) (from UniProt P55773 22-137) (ligand)”, in [2], the Intracellular Ca2+ mobilization pEC50 (n = 3), CHO cells (-log of the EC50) is under 5.7 and the fold lower potency at FPRL-1 than at CCR1, calcium mobilization was 200 to 300 fold.

Regarding `CSCC[C@H](NC(=O)[C@@H](NC(=O)[C@H](CCSC)NC(=O)[C@H](Cc1ccc(O)cc1)NC(=O)[C@H](CCCCN)NC(=O)[C@@H](N)Cc1c[nH]c2ccccc12)C(C)C)C(N)=O` [W-peptide], the “concentration at which the maximum percentage of cell migration was reached” value with PMNs [3] is given as 100 nM. For the same molecule, the calcium response entry on FPRL-1 [4] (CHO cells transiently expressing FPRL-1, absence of Gα16) was “consistent calcium response”. Moreover, on FPRL-1 [4] (CHO-K1 transiently expressing FPRL-1, PTX pre-treatment), the “effect of pertussis toxin (PTX) pre-treatment on ligand-induced Ca2+ response” value is on record as “completely abolished”.

In the case of “CKβ8 (aa22-120) (from UniProt P55773 22-120) (ligand)”, the Intracellular Ca2+ mobilization pEC50 (n = 3), CHO cells (-log of the EC50) in experiment [2] is under 5.

Consider “Human Prion protein (hPrP) (from UniProt P04156 106-126)”, for which the Intracellular Ca2+ mobilization pEC50 (n = 3), CHO cells (-log of the EC50) in experiment [2] is under 6.

LWRRKIGPQMTLSHAAG [SHAAG peptide] gave a half-maximal effective concentration (EC50) on FPRL-1 [5] (Intracellular Ca2+ mobilization pEC50 (n = 3), CHO cells co-expressing Gα16 and FPRL-1, mean±s.e. mean) of 182 nM. On FPRL-1 [5] (setting [10]), the “times less potent at FPRL-1 as compared to CKβ8-1 (aa46-137)” value was in the range of 60 to 200 times and the “times more potent than the long form CKβ8-1(aa22-137)” value was about 120 times.

Take “recombinant human CKβ8-1 (aa46-137) (from UniProt P55773 46-137) (ligand)”: in experiment [2], the Adenylyl cylase pIC50 (inhibition of forskolin-stimulated cAMP accumulation), CHO cells (-log of the IC50) turned out to be 9.02; the EC50, intracellular calcium mobilization (FLIPR), CHO cells transiently expressing hFPRL-1 in Gα16 background, n = 1 was 0.69 nM; the EC50, intracellular calcium mobilization (FLIPR), CHO cells transiently expressing hFPRL-1 in Gα16 background, n = 2 was 0.14 nM; the EC50, intracellular calcium mobilization (FLIPR), CHO cells transiently expressing hFPRL-1 in Gαqi5 background, n = 1 worked out at 2.9 nM. In experiment [2], the EC50, intracellular calcium mobilization (FLIPR), CHO cells transiently expressing hFPRL-1 in Gαqi5 background, n = 2 came to 2.5 nM; the Emax, intracellular calcium mobilization (FLIPR), CHO cells transiently expressing hFPRL-1 in Gα16 background, n = 1 amounted to 4120 RFU; the Emax, intracellular calcium mobilization (FLIPR), CHO cells transiently expressing hFPRL-1 in Gα16 background, n = 2 is 6330 RFU; the Emax, intracellular calcium mobilization (FLIPR), CHO cells transiently expressing hFPRL-1 in Gαqi5 background, n = 1 turned out to be 4600 RFU. Also, in experiment [2], the Emax, intracellular calcium mobilization (FLIPR), CHO cells transiently expressing hFPRL-1 in Gαqi5 background, n = 2 was found to be 5950 RFU; the Intracellular Ca2+ mobilization pEC50 (n = 3), CHO cells (-log of the EC50) was 9.13; the concentration giving the maximum percentage of cell migration, PMN chemotaxis came to 1 µM; the pEC50, [Ca2+]i mobilization in PMNs (-log of the EC50) turned out to be 7.42. This molecule also had a pIC50 (-log of the IC50) in experiment [6] of 7.97.

On to “CKβ8 (aa46-120) (from UniProt P55773 46-120) (ligand)”, for which the Intracellular Ca2+ mobilization pEC50 (n = 3), CHO cells (-log of the EC50) in experiment [2] is under 5.

Regarding MMK-1 (peptide), in experiment [2], the concentration giving the maximum percentage of cell migration, PMN chemotaxis was found to be 12 µM and the pEC50, [Ca2+]i mobilization in PMNs (-log of the EC50) stood at 7.17.

Turning to MIP-1α: ligand tested in PMNs, the negative logarithm of the EC50 (pEC50) entry in the experiment on PMNs [1] was “inactive (n = 4)”.

Regarding SHAAG peptide, in experiment [2], the Intracellular Ca2+ mobilization pEC50 (n = 3), CHO cells (-log of the EC50) worked out at 6.74; the fold higher potency than CKβ8-1 (aa22-137), calcium mobilization turned out to be 120 fold; the fold lower potency than CKβ8-1 (aa46-137), calcium mobilization was in the range of 60 to 200 fold.

On to `CCCCC[C@H](O)/C=C/C=C\C=C\C=C\[C@@H](O)[C@@H](O)CCCC(=O)O` [Lipoxin A4 (LXA4), Lipoxin A4], for which, at FPRL-1 [7], the “[125I]-W-peptide (WKYMVm) Displacement pIC50 (n = 3)” value (“[125I]-W-peptide” for short) is “inactive”. The “Intracellular Ca2+ mobilization pEC50 (n = 3)” value at FPRL-1 [5] (setting [11]) is under 6.0. For the same molecule, the pEC50 entry in the experiment with PMNs [1] is “inactive (n = 4)”. Also, the “Adenylyl cylase pIC50” value at FPRL-1 [8] is <5.7 (n = 2).

B1: Serum Amyloid A protein (SAA) (ligand, UniProt P0DJI8 19-122, looked up, species assumed)
Serum amyloid A-1 protein: RSFFSFLGEAFDGARDMWRAYSDMREANYIGSDKYFHARGNYDAAKRGPGGAWAAEVITDARENIQRFFGHGAEDSLADQAANEWGRSGKDPNHFRPAGLPEKY
For B1, the “[125I]-W-peptide” value in the experiment with FPRL-1 [7] was under 5.52. Besides, the “[125I]-W-peptide” value in the experiment with FPRL-1 [7] (listed as SAA) is given as under 5.52. For the same molecule, the “Intracellular Ca2+ mobilization pEC50 (n = 3)” value with FPRL-1 [5] (setting [11]) is recorded as 6.88 ± 0.07. The pEC50 in the experiment on PMNs [1] was <5.7 (n = 3). In the experiment with FPRL-1 [8], the “Adenylyl cylase pIC50” value is 6.38 and 6.48. In [9], the Adenylyl cylase pIC50 (inhibition of forskolin-stimulated cAMP accumulation), CHO cells (-log of the IC50) was 6.38 and 6.48; the Intracellular Ca2+ mobilization pEC50 (n = 3), CHO cells (-log of the EC50) was 6.88; the pEC50, [Ca2+]i mobilization in PMNs (-log of the EC50) is under 5.7.

Broadly, the pEC50 is the negative decadic logarithm of the EC50, by convention in mol/L. As a reminder, the EC50 is the concentration needed to bring the measured effect to its halfway point.

These data come from patent US20060141460A1, “Assays for fprl-1 ligands” (AstraZeneca A B, priority 2002, published 2006).
